Laboratory results published in article PMC12145522.

Assays:
[1] = target: RNAP-HrpL holoenzyme (His-tagged) (Pseudomonas syringae pv. actinidiae | not stated) (UniProt P37929); assay: MST; RNAP-HrpL holoenzyme labelled with RED-Tris-NTA, 50 nM, titrated with GST-TrpR2 from 0.38 nM to 25 μM; MST buffer; 25℃; Monolith NT.115, medium MST power, 90 % LED power; triplicate
[2] = target: GST tagged TrpR2 (Pseudomonas syringae pv. actinidiae M228); assay: MST

UniProt P37929, sequence (P37929 whole entry, looked up): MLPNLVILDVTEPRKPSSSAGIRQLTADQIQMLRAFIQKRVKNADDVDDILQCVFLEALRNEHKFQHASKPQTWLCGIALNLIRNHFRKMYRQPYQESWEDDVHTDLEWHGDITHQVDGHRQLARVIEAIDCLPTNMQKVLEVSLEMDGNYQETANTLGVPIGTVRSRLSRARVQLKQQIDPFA

## GST tagged TrpR2 (natural protein)
[1]
  Kd: 2.41 µM

## RNAP-His
[2]
  Kd: 7.75 µM
